From US20230213527A1, “COMPOSITIONS AND METHODS FOR POLYPEPTIDE ANALYSIS” (Quantum-Si Incorporated, priority 2021, published 2023)

How the values were obtained:
[1] = target: … (SEQ ID NO: 823), state with N-terminal leucine (…); experiment: single-molecule on-chip sequencing with PS691, PS610 and PS961
[2] = target: RLp… (SEQ ID NO: 824), state with N-terminal leucine (Lp…); experiment: as above

B1: PS961 (designed binder)
chain: MPTAASATESAIEDTPAPARPEVDGRTKPKRQPRYHVVLWDDDDHTYQYVVVMLRSLFGHPPSRGYRMAKEMDTQGRVIVLTTTREHAELKRDQIHAFGRDRLLARSKGSMKASIEAEE
Question: B1 was tested. Which RS mean PD [1] did it give?
Answer: Its RS mean PD is 2.45 s.

Question: What about the RS mean PD [2] of the same binder?
Answer: The RS mean PD was 3.4 s.
